Laboratory results reported in PMC5986058.

Substrate: C[C@H](O)[C@H](N)C(=O)O
Test: purified protein
Assay type: biochemical, Aeromonas jandaei
Settings: 50 mM NaPi pH 8, 25 °C, 50 μM PLP

B1: LTAaj (L-threonine aldolase from Aeromonas jandaei; L-allo-threonine aldolase) (Aeromonas jandaei) (protein)
chain: MRYIDLRSDTVTQPTDAMRQCMLHAEVGDDVYGEDPGVNALEAYGADLLGKEAALFVPSGTMSNLLAVMSHCQRGEGAVLGSAAHIYRYEAQGSAVLGSVALQPVPMQADGSLALADVRAAIAPDDVHFTPTRLVCLENTHNGKVLPLPYLREMRELVDEHGLQLHLDGARLFNAVVASGHTVRELVAPFDSVSICLSKGLGAPVGSLLVGSHAFIARARRLRKMVGGGMRQAGILAQAGLFALQQHVVRLADDHRRARQLAEGLAALPGIRLDLAQVQTNMVFLQLTSGESAPLLAFMKARGILFSGYGELRLVTHLQIHDDDIEEVIDAFTEYLGA
notes: C-terminal His-tag, expressed in E. coli BL21(DE3), Ni-NTA purified, homotetramer, PLP-dependent
B1 was tested, and the Km was 500 µM, the kcat was 8.67 s⁻¹ and the kcat/Km was 17000 M⁻¹ s⁻¹.
